In patent US20020077289A1, “Angiostatin and endostatin binding proteins and methods of use” (priority 2000, published 2002):

Assays:
HUVEC microfilaments = assay: Fluorescent staining of formalin fixed endothelial cells with Alexa 488-labeled rhEndostatin; type: cell-based, human; details: 40 μg/ml Alexa 488-labeled rhEndostatin with anti-tropomyosin TM311; HUVECs
Description: (A), HUVECs, (B), HAECs and (C), HMVECs were incubated in the presence of 40 micrograms per milliliter (μg/ml) Alexa 488-labeled rhEndostatin and photographed at 100× magnification under Alexa 488 (green) excitation wavelength. (D) and (E), HUVECs were incubated simultaneously in anti-tropomyosin TM311 ascites fluid and 40 micrograms per milliliter (μg/ml) Alexa 488-labeled rhEndostatin followed by incubation in Alexa 594 conjugated goat anti-mouse IgG (H+L). The same field was photographed under Alexa 488 (green) and Alexa 594 (red) excitation wavelengths at 100× magnification.
HUVECs were incubated in the presence of 40 micrograms per milliliter (μg/ml) Alexa 488-labeled rhEndostatin alone (A), or in the presence of a 50-fold molar excess of control peptide (B), or E37 peptide (C). Cells were photographed using the same exposure times at 100x magnification under Alexa 488 (green) excitation wavelength.
To detect the binding of Alexa-labeled rhEndostatin 1×10^4 HUVEC, HMVEC and HAECs were plated on 1.5% gelatin coated Nalge Nunc Lab Tek II chamber slides (Naperville, Ill.) and fixed in 10% neutral buffered formalin followed by a methanol wash. The chamber slides were incubated in PBS/1% calf serum containing 40 μg/ml (2 μM) of Alexa 488-labeled rhEndostatin (Narum et al., manuscript in preparation) for 1 hr at room temperature. The slides were washed in PBS, coverslips mounted using fluorescent mounting media (Kirkegaard and Perry Laboratories, Gaithersburg, Md.) and cells photographed under Alexa 488 excitation wavelength. Co-localization studies were performed as above except cells were incubated in PBS/1% calf serum containing 1:200 mouse anti-tropomyosin TM311 (Sigma, St. Louis, Miss.) and 40 μg/ml of Alexa 488-labeled rhEndostatin followed by incubation with goat anti-mouse IgG (H+L) conjugated to Alexa 594 (Molecular Probes, Eugene, Oregon). The same fields were photographed under Alexa 488 and Alexa 594 wavelengths. […]

viable HUVECs = assay: Internalization of Alexa Fluor 488 labeled rhEndostatin by viable HUVECs; type: cell-based, human
Description: To determine whether live endothelial cells actively internalize Endostatin protein, viable HUVECs were incubated with Alexa Fluor™ 488 labeled rhEndostatin protein. […] Internalized rhEndostatin was rapidly processed such that by 60 minutes, little if any intercellular fluorescence was detected (data not shown).

B16-BL6 melanoma cells = assay: B16-BL6 experimental metastasis assay; type: in vivo, C57BL/6J mice; details: dose of 1.3 nmol rhEndostatin
[1] = tested on: primary cultures of pericytes; assay: Proliferation of PDGF-BB or 20% fetal calf serum stimulated pericytes (thymidine incorporation, MTT); type: cell-based
Excerpt: (§1) Endostatin protein results in an inhibition of proliferation of PDGF-BB or 20% fetal calf serum stimulated primary cultures of pericytes and to a lesser extent fibroblasts. […] The results have been confirmed using a MTT proliferation kit.
Endostatin protein tends to have a greater effect on cells in the earlier stages of differentiation. While such cells constitute a small fraction of the total number, inhibiting their proliferation may have significant effects on the final total cell number. Endostatin protein's effect on cells early in the differentiation pathway results in a reduction of 70-80% of the final cell number. Endostatin protein also changes the morphology of these cells (data not shown).

fibroblasts = assay: Proliferation of PDGF-BB or 20% fetal calf serum stimulated fibroblasts (thymidine incorporation, MTT); type: cell-based; details: stimulated with PDGF-BB or 20% fetal calf serum; compared with pericytes
Excerpt: as §1

wound healing = details: in vivo; cited from earlier work
[2] = Pharmacokinetics: serum rhEndostatin levels after s.c. administration; type: in vivo, C57BL/6J mice; details: for AUClast: sera 0.17-2 hours
Description: To determine the pharmacokinetics, C57BL/6J mice (3 per time point) were dosed s.c. with 1.5 nmol of rhEndostatin alone or in combination with 375 nmol of either E37 or control peptide. Sera was collected 0.17, 0.5, 1 and 2 hours following s.c. administration. Serum drug levels were determined using an Endostatin EIA kit (Cytlmmune Sciences, College Park, Md.) according to the manufacture's instructions. Pharmacokinetic analyses of the serum concentration versus time data were performed by nonlinear least square minimization using RSTRIP (Version 4.03, MicroMath Scientific Software, Salt Lake City, Ut.).
Groups of mice (3 mice/time point) were injected s.c. with 1.5 nmol of rhEndostatin alone or in combination with a 250-fold molar excess of either E37 or control peptide. Sera were collected at 0.17, 0.5, 1 and 2 hours following s.c. administration, and assessed for serum rhEndostatin levels as previously described (Sim et al.)

mammary tumor = details: i.v. technetium (99mTc) labeled rhEndostatin, 100 μCi/rat; personal communication; cited from earlier work
G-actin = assay: Actin polymerization light scatter assay; type: biochemical; details: G-actin/Endostatin nucleation complexes
Excerpt: As a result of the inventors findings, also included herein are_antiangiogenic actin-binding molecules. Though not wishing to be bound by the following theory, it is believed that since actin polymerization is affected by Endostatin it could possibly mean that Endostatin is binding to the actin component of the microfilaments, in addition to or in association with tropomyosin. […] Accordingly, molecules such as Endostatin that have an effect on actin polymerization will have an effect on microfilaments resulting in anti-angiogenic activity through modification of cell motility, and induction of cell apoptosis. Preferred embodiments of the present invention include compositions comprising proteins and chemicals that bind tropomyosin isoforms, such as hTM3. In certain embodiments, such compositions may be characterized as antiangiogenic actin-binding molecules.

B1: rhEndostatin: recombinant human Endostatin, antiangiogenic fragment of a C-terminal non-collagenous region of a collagen protein, produced in P. pastoris (protein)
chain: HSHRDFQPVLHLVALNSPLSGGMRGIRGADFQCFQQARAVGLAGTFRAFLSSRLQDLYSIVRRADRAAVPIVNLKDELLFPSWEALFSGSEGPLKPGARIFSFDGKDVLRHPTWPQKSVWHGSDPNGRRLTESYCETWRTEAPSATGQASSLLGGRLLGQSAASCHHAYIVLCIENSFMTASK
localization of fluorescently labeled rhEndostatin in fixed cells (HUVEC microfilaments): co-localized to HUVEC microfilaments | internalization by live endothelial cells (viable HUVECs): rapidly internalized and translocated predominantly to the nucleus | inhibition of lung metastases inferred from dose titration of rhEndostatin (Sim et al) (B16-BL6 melanoma cells): 77% | differentiation of pericytes to fibroblasts [1]: does not appear to affect | reduction of the final cell number ([1]; effect on cells early in the pericyte/fibroblast differentiation pathway): 70-80% | thymidine incorporation into primary cultures of pericytes ([1]; stimulated with PDGF-BB or 20% fetal calf serum): consistent reduction in thymidine incorporation | thymidine incorporation into fibroblasts (fibroblasts): to a lesser degree | effect on wound healing (wound healing): remained unaffected | AUClast ([2]; 1.5 nmol rhEndostatin s.c. + 250x E37 peptide): 4544 ng·min/mL | AUClast ([2]; 1.5 nmol rhEndostatin s.c. + 250x control peptide): 5552 ng·min/mL | AUClast ([2]; 1.5 nmol rhEndostatin s.c. alone): 5370 ng·min/mL | AUClast relative to rhEndostatin alone or with 375 nmol control peptide ([2]; 1.5 nmol rhEndostatin s.c. co-administered with 250-fold molar excess of E37 peptide): 85% | time after injection at which the tumor could be visualized (mammary tumor): 0.5 to 4 h | effect on actin polymerization (G-actin): shorten the lag phase and facilitate actin polymerization
